The values below come from patent US20250019440A1 (Zymeworks, published 2025).

For one experiment, the target named is Human CD3 (recombinant) (human). The experiment can be described thus: SPR, CD3 amine-coupled, variant as analyte, 1:1 model. (Surface plasmon resonance follows binding to a sensor surface in real time, without labels.)
The next experiment has as its target T1, Human PD-L1 (human, UniProt Q9NZQ7 19-239).
T1 construct: Amine-coupled to a CM5 chip for SPR; also called recombinant human PD-L1
As to the kind of experiment: SPR, PD-L1 amine-coupled, variant as analyte, 1:1 model.

Human CD3 (recombinant) (human), sequence (chain, as listed by the source): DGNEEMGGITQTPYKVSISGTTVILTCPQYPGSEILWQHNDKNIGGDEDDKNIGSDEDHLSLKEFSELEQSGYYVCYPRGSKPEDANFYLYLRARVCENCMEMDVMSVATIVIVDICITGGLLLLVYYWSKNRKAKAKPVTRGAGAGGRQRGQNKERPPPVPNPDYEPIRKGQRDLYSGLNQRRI
T1 sequence (Q9NZQ7 19-239 limits assumed): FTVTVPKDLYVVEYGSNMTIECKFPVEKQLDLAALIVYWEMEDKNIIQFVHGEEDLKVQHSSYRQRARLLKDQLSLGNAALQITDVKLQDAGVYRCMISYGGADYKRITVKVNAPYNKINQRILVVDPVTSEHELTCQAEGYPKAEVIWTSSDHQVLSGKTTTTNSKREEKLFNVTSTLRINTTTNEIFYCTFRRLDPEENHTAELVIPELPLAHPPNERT

B1: v38740 (other)
heavy 1: EVQLVESGGGLVQPGGSLRLSCAASGVTFNYYGMSWIRQAPGKGLEWVASITSSGGRIYYPDSVKGRFTISRENTQKTLYLQMNSLRAEDTAVYYCTLDGRDGWVAYWGQGTLVTVSSASTKGPSVFPLAPSSKSTSGGTAALGCLVKDYFPEPVTVSWNSGALTSGVHTFPAVLQSSGLYSLSSVVTVPSSSLGTQTYICNVNHKPSNTKVDKKVEPKSCDKTHTCPPCPAPEAAGGPSVFLFPPKPKDTLMISRTPEVTCVVVSVSHEDPEVKFNWYVDGVEVHNAKTKPREEQYNSTYRVVSVLTVLHQDWLNGKEYKCKVSNKALPAPIEKTISKAKGQPREPQVYVYPPSRDELTKNQVSLTCLVKGFYPSDIAVEWESNGQPENNYKTTPPVLDSDGSFALVSKLTVDKSRWQQGNVFSCSVMHEALHNHYTQKSLSLSPGGGGGSGDRPWNPPTFSPALLVVTEGDNATFTCSFSNTSESFVLNWYRMSPSNQTDKLAAFPEDRSQPGQDARFRVTQLPNGRDFHMSVVRARRNDSGTYLCGAISLAPKAQIKESLRAELRVTE
light: NFMLTQPHSVSESPGKTVTISCKRNTGNIGSNYVNWYQQHEGSSPTTIIYRNDKRPDGVSDRFSGSIDRSSKSASLTISNLKTEDEADYFCQSYSSGFIFGGGTKLTVLGQPKAAPSVTLFPPSSEELQANKATLVCLISDFYPGAVTVAWKADSSPVKAGVETTTPSKQSNNKYAASSYLSLTPEQWKSHRSYSCQVTHEGSTVEKTVAPTECS
heavy 2: QVQLVESGGGLVQPGGSLRLSCSVSGIDLSSNPMIWVRQAPGKGLQYIGIIDTDGSTYYADWAKGRFTISKDSTTVYLQINSPRAEDTAVYYCARRLHGSSNGYYDDLWGQGTLVTVSSGGGGSGGGGSGGGGSGGGGSDGQMTQSPSSVSASVGDRVTITCQASQSIYSYLSWYQQKPGQRPKLLIYKASTLASGVPSRFSGSGSGTDFTLTISSVQPEDFATYYCQQGYTVTNVDKNTFGGGTKVEIKAAEPKSSDKTHTCPPCPAPEAAGGPSVFLFPPKPKDTLMISRTPEVTCVVVSVSHEDPEVKFNWYVDGVEVHNAKTKPREEQYNSTYRVVSVLTVLHQDWLNGKEYKCKVSNKALPAPIEKTISKAKGQPREPQVYVLPPSRDELTKNQVSLLCLVKGFYPSDIAVEWESNGQPENNYLTWPPVLDSDGSFFLYSKLTVDKSRWQQGNVFSCSVMHEALHNHYTQKSLSLSPG
notes: CD3 Fab x Cldn18.2 scFv Fc, wildtype (WT) PD-1 attached to HC1 (C-term)
What is called Kd is the concentration at which binding is half-saturated. On to B1, for which the values for the Kd in the experiment with Human CD3 (recombinant) and with Human PD-L1 were 30 nM and 510 nM, respectively.
